Assay results taken from article PMC7064531, “Structure of E3 ligase E6AP with a proteasome-binding site provided by substrate receptor hRpn10” (Nature Communications, 2020).

What was measured:
Details in all cases: both partners purified
[1] = target: ubiquitin (UniProt P0CG48 1-76); assay: NMR titration; 2D NMR on 15N-hRpn10 196-377, ubiquitin added; 25 °C, 10 mM MOPS pH 6.5, 50 mM NaCl, 5 mM DTT, 10 μM zinc sulfate
[2] = target: T1, full-length E6AP (Isoform II) (human, UniProt Q05086 1-875); assay: pull-down; 2 nmol His-tagged hRpn10 construct on Ni-NTA agarose, 200 pmol E6AP for 1 h; 10 mM MOPS pH 6.5, 50 mM NaCl, 5 mM 2-mercaptoethanol, 10 μM zinc sulfate; Coomassie staining
T1 construct: E6AP/UBE3A, isoform II, full length; catalytic cysteine C843 in isoform II; also called UBE3A; source: bought: UBPBio K1411
T1 sequence (Q05086 whole entry, canonical isoform): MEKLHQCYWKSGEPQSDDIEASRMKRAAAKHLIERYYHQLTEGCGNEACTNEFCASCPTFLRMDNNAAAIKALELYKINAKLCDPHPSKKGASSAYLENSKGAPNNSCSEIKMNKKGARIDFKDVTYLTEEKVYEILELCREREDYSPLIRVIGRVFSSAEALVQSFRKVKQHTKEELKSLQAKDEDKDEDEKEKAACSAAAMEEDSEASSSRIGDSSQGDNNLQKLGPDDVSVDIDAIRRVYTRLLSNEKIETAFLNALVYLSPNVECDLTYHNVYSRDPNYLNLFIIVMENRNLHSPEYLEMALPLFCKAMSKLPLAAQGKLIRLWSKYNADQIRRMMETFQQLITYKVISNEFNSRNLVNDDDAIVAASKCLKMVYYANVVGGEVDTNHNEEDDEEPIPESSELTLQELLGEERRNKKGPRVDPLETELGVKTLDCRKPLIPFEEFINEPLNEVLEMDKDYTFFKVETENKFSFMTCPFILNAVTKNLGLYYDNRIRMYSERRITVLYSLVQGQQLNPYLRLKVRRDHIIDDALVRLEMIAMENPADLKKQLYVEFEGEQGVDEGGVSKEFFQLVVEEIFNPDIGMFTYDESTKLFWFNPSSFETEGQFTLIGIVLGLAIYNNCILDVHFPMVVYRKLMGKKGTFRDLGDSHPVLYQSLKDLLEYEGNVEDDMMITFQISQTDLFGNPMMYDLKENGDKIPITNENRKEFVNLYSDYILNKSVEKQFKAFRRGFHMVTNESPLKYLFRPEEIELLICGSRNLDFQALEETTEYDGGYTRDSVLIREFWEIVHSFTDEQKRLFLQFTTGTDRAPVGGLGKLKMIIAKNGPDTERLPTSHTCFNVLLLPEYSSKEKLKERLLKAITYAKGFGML

[3] = target: T2, hRpn10^305–377 (RAZUL, Rpn10 AZUL-binding domain) (human, UniProt P55036 305-377); assay: ITC; 25 °C, MicroCal iTC200; E6AP AZUL injected into hRpn10 305-377 (0.0405 mM) or hRpn10 322-366 peptides (0.01 mM) in the cell; 10 mM MOPS pH 6.5, 50 mM NaCl, 5 mM DTT, 10 μM zinc sulfate; one-site fit
T2 construct: Isotope-labelled (15N, 13C, 2H) in some NMR samples; also called hRpn10 RAZUL; source: E. coli Rosetta 2 (DE3), purified (glutathione sepharose, PreScission cleavage, SEC); not shown: GST, N-terminal, cleaved
T2 sequence (looked up): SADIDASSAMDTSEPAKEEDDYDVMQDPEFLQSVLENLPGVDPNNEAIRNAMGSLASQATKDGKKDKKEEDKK

[4] = target: T3, GST-hRpn10^305–377 (human, UniProt P55036 305-377); assay: SPR; Biacore T200; GST-hRpn10 305-377 captured (800 RU) by anti-GST antibody on a CM5 chip, GST on the reference cell; E6AP AZUL 5-250 nM in HBS-P+ with 10 μM zinc sulfate, single cycle kinetics, triplicate
T3 construct: pGEX-6P-3; a PreScission site lies between GST and hRpn10; source: E. coli Rosetta 2 (DE3), purified (glutathione sepharose, glutathione elution, SEC); not shown: GST, N-terminal, kept
T3 sequence (looked up): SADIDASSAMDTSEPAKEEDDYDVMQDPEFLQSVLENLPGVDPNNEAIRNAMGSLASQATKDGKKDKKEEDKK

| Binder | binding result [1] | binding result [2] | Kd [3] [nM] | Kd [4] [nM] |
| --- | --- | --- | --- | --- |
| His-hRpn10^196–377 (domain or fragment, human, UniProt P55036 196-377, looked up, pET14b with a thrombin site; the methods say that it was eluted with the His-tag intact; 15N-labelled for the NMR experiment with ubiquitin; source: E. coli BL21 (DE3), purified (Ni-NTA, imidazole elution, SEC); not shown: polyhistidine tag, N-terminal, kept) MLGLGASDFEFGVDPSADPELALALRVSMEEQRQRQEEEARRAAAASAAEAGIATTGTEDSDDALLKMTISQQEFGRTGLPDLSSMTEEEQIAYAMQMSLQGAEFGQAESADIDASSAMDTSEPAKEEDDYDVMQDPEFLQSVLENLPGVDPNNEAIRNAMGSLASQATKDGKKDKKEEDKK | binds | binds |  |  |
| E6AP AZUL (amino-terminal zinc-binding domain of ubiquitin E3a ligase), amino acids 24 to 87 (domain or fragment, human, UniProt Q05086 24-87, looked up, E6AP/UBE3A AZUL domain, human, amino acids 24 to 87, subcloned from HA-E6AP isoform II; zinc sulfate in the buffers; Isotope-labelled (15N, 13C) in some NMR samples; also called AZUL domain; source: E. coli BL21 (DE3), purified (Ni-NTA, thrombin cleavage, SEC); not shown: polyhistidine tag, N-terminal, cleaved) MKRAAAKHLIERYYHQLTEGCGNEACTNEFCASCPTFLRMDNNAAAIKALELYKINAKLCDPHP |  |  | 11.6 | 8.1 |
| His-hRpn10^full-length (natural protein, human, UniProt P55036 1-377, looked up, human Rpn10 (hRpn10/PSMD4/S5a), full length; pET11d plasmid, a gift from Dr Fumio Hanaoka; also called His6-hRpn10^full-length; source: E. coli BL21 (DE3), purified (Ni-NTA, imidazole elution, SEC); not shown: His6, N-terminal, kept) MVLESTMVCVDNSEYMRNGDFLPTRLQAQQDAVNIVCHSKTRSNPENNVGLITLANDCEVLTTLTPDTGRILSKLHTVQPKGKITFCTGIRVAHLALKHRQGKNHKMRIIAFVGSPVEDNEKDLVKLAKRLKKEKVNVDIINFGEEEVNTEKLTAFVNTLNGKDGTGSHLVTVPPGPSLADALISSPILAGEGGAMLGLGASDFEFGVDPSADPELALALRVSMEEQRQRQEEEARRAAAASAAEAGIATTGTEDSDDALLKMTISQQEFGRTGLPDLSSMTEEEQIAYAMQMSLQGAEFGQAESADIDASSAMDTSEPAKEEDDYDVMQDPEFLQSVLENLPGVDPNNEAIRNAMGSLASQATKDGKKDKKEEDKK |  | binds |  |  |
